# In article PMC10843261 (Molecular cell, 2023):
# B1: SARS-CoV-2 nsp9 (natural protein)
# chain: NNELSPVALRQMSCAAGTTQTACTDDNALAYYNTTKGGRFVLALLSDLQDLKWARFPKSDGTGTIYTELEPPCRFVTDTPKGPKVKYLYFIKGLNNLNRGMVLGSLAATVRLQ
# B2: RNAylated-nsp9 (20mer RNA) (natural protein)
# chain: B1 chain
# Molecular target: SARS-CoV-2 nsp12 (SARS-CoV-2, UniProt P0DTD1)
# Experiment: cryo-EM structure
binder,measurement,value
B1,binding result,binds
B2,binding result,binds
